Read-outs that look alike come from different tables or passages of the source.

Data set [1] concerns the target NF-κB p65 (endogenous, Caco 2 nuclear extracts) (human, UniProt Q04206 1-551). Briefly: supershift EMSA of Caco 2 nuclear extracts with anti-p50 and anti-p65 antibodies. Background: Mobility shift assays separate free from complexed probe on a gel.
For data set [2], the target named is histone H3 purified from calf thymus, P68432.
The target of data set [3] is peptide mimicking the histone H3 tail carrying pS10 modification.
Data set [4] addresses 33P-labeled Erk2 (GST-Erk2 fusion protein phosphorylated in vitro by MEK1).
Data set [5] relates to 33P-labeled Erk2 (GST-Erk2 fusion protein phosphorylated in vitro by MEK1). The source holds these as a separate data set.

Sequence of NF-κB p65 (endogenous, Caco 2 nuclear extracts) (Q04206 whole entry): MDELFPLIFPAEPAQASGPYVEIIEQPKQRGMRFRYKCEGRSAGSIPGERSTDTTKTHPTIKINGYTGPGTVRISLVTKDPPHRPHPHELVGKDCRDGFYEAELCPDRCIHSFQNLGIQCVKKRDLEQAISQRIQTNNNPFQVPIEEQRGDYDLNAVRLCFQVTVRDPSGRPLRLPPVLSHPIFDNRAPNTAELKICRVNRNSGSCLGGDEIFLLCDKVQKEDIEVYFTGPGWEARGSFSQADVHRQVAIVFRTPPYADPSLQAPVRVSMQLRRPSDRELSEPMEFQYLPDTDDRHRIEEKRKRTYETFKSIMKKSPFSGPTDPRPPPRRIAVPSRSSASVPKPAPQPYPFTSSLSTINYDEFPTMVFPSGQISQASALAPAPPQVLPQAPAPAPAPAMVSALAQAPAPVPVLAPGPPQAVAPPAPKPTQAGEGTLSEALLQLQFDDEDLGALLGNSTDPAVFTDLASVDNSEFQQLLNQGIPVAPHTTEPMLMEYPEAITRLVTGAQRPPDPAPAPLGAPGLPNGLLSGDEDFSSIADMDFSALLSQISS

B1: NF-κB p50 (endogenous, Caco 2 nuclear extracts) (other)
chain: MAEDDPYLGRPEQMFHLDPSLTHTIFNPEVFQPQMALPTDGPYLQILEQPKQRGFRFRYVCEGPSHGGLPGASSEKNKKSYPQVKICNYVGPAKVIVQLVTNGKNIHLHAHSLVGKHCEDGICTVTAGPKDMVVGFANLGILHVTKKKVFETLEARMTEACIRGYNPGLLVHPDLAYLQAEGGGDRQLGDREKELIRQAALQQTKEMDLSVVRLMFTAFLPDSTGSFTRRLEPVVSDAIYDSKAPNASNLKIVRMDRTAGCVTGGEEIYLLCDKVQKDDIQIRFYEEEENGGVWEGFGDFSPTDVHRQFAIVFKTPKYKDINITKPASVFVQLRRKSDLETSEPKPFLYYPEIKDKEEVQRKRQKLMPNFSDSFGGGSGAGAGGGGMFGSGGGGGGTGSTGPGYSFPHYGFPTYGGITFHPGTTKSNAGMKHG
B1: the binding result in data set [1] is recorded as “binds”.

B2: OspF phosphatase (purified recombinant protein) (protein)
chain: MPIKKPCLKLNLDSLNVVRSEIPQMLSANERLKNNFNILYNQIRQYPAYYFKVASNVPTYSDICQSFSVMYQGFQIVNHSGDVFIHACRENPQSKGDFVGDKFHISIAREQVPLAFQILSGLLFSEDSPIDKWKITDMNRVSQQSRVGIGAQFTLYVKSDQECSQYSALLLHKIRQFIMCLESNLLRSKIAPGEYPASDVRPEDWKYVSYRNELRSDRDGSERQEQMLREEPFYRLMIE
What is called Km is the concentration of substrate that gives half-maximal velocity. Usually Vmax stands for the rate approached at saturating substrate. Broadly, the kcat is the number of substrate molecules converted per active site and unit of time at saturation. As to B2, the “in vitro dephosphorylation (Western blot, anti-metK9-pS10 antibody)” value in data set [2] is “OspF did not directly dephosphorylate these substrates, even when the enzyme concentration was increased 100 fold”. The “in vitro dephosphorylation of peptide” value in data set [3] is on record as “OspF did not directly dephosphorylate these substrates, even when the enzyme concentration was increased 100 fold”. Further, in data set [4], the Km is 0.204 µM; the Vmax worked out at 9.89 pM/s; the “dephosphorylation of 33P-labeled Erk2 (gel mobility in SDS-PAGE/autoradiography, Western blot)” value is reported as “Dephosphorylation of Erk2 by both enzymes was confirmed”; the catalytic constant (kcat) is 0.0001 s⁻¹.

B3: MKP1 (mammalian dual specific phosphatase, Upstate Cell Signaling) (enzyme, UniProt P28562 1-367, looked up, species assumed)
Dual specificity protein phosphatase 1: MVMEVGTLDAGGLRALLGERAAQCLLLDCRSFFAFNAGHIAGSVNVRFSTIVRRRAKGAMGLEHIVPNAELRGRLLAGAYHAVVLLDERSAALDGAKRDGTLALAAGALCREARAAQVFFLKGGYEAFSASCPELCSKQSTPMGLSLPLSTSVPDSAESGCSSCSTPLYDQGGPVEILPFLYLGSAYHASRKDMLDALGITALINVSANCPNHFEGHYQYKSIPVEDNHKADISSWFNEAIDFIDSIKNAGGRVFVHCQAGISRSATICLAYLMRTNRVKLDEAFEFVKQRRSIISPNFSFMGQLLQFESQVLAPHCSAEAGSPAMAVLDRGTSTTTVFNFPVSIPVHSTNSALSYLQSPITTSPSC
Turning to B3, in data set [5], the Km was 0.229 µM; the maximum rate (Vmax) was 6.01 pM/s; the “dephosphorylation of 33P-labeled Erk2 (gel mobility in SDS-PAGE/autoradiography, Western blot)” value is given as “Dephosphorylation of Erk2 by both enzymes was confirmed”; the kcat came out at 0.0006 s⁻¹.

B4: lambda phosphatase (protein)
chain: MRYYEKIDGSKYRNIWVVGDLHGCYTNLMNKLDTIGFDNKKDLLISVGDLVDRGAENVECLELITFPWFRAVRGNHEQMMIDGLSERGNVNHWLLNGGGWFFNLDYDKEILAKALAHKADELPLIIELVSKDKKYVICHADYPFDEYEFGKPVDHQQVIWNRERISNSQNGIVKEIKGADTFIFGHTPAVKPLKFANQMYIDTGAVFCGNLTLIQVQGEGA
Take B4: the “in vitro dephosphorylation (Western blot, anti-metK9-pS10 antibody)” value in data set [2] is “in contrast to the lambda phosphatase, OspF did not directly dephosphorylate these substrates”. The “in vitro dephosphorylation of peptide” value in data set [3] is reported as “in contrast to the lambda phosphatase, OspF did not directly dephosphorylate these substrates”.
